Target: Factor X, P00742
Sequence (P00742 whole entry, looked up): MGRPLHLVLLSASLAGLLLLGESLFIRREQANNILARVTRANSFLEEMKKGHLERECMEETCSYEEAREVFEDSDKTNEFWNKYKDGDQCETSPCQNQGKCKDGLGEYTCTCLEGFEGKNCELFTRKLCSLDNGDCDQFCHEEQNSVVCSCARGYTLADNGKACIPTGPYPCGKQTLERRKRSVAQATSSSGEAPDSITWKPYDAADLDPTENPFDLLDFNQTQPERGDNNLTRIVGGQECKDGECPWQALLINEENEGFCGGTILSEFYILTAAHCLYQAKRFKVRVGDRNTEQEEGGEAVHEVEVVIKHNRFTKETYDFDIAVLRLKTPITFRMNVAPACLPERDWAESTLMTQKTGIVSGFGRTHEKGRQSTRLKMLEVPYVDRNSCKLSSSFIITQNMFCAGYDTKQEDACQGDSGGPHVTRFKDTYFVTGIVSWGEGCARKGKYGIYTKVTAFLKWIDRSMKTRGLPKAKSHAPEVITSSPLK

B1: FIXa K247N/N249S/N260S/R318Y/R338E/R403E/E410N (protein)
chain 1: YNSGKLEEFVQGNLERECMEEKCSFEEAREVFENTERTTEFWKQYVDGDQCESNPCLNGGSCKDDINSYECWCPFGFEGKNCELDVTCNIKNGRCEQFCKNSADNKVVCSCTEGYRLAENQKSCEPAVPFPCGRVSVSQTSKLTR
chain 2: VVGGEDAKPGQFPWQVVLNGKVDAFCGGSIVNEKWIVTAAHCVETGVKITVVAGEHNIEETEHTEQNRSVIRIIPHHNYSAAINKYNHDIALLELDEPLVLNSYVTPICIADKEYTNIFLKFGSGYVSGWGRVFHKGYSALVLQYLRVPLVDRATCLESTKFTIYNNMFCAGFHEGGRDSCQGDSGGPHVTEVEGTSFLTGIISWGEECAMKGKYGIYTKVSEYVNWIKNKTKLT
With B1 the “% of WT kcat/KM” value was 145%, the KM (FX activation by FIXa in Xase complex with FVIIIa, PC/PS vesicles, Ca2+) was 0.0474 µM and the kcat/KM was 6.7e+07 M⁻¹ s⁻¹.

B2: FIXa Y155F/K247N/N249S/N260S/R318Y/R338E/R403E/E410N (protein)
chain 1: YNSGKLEEFVQGNLERECMEEKCSFEEAREVFENTERTTEFWKQYVDGDQCESNPCLNGGSCKDDINSYECWCPFGFEGKNCELDVTCNIKNGRCEQFCKNSADNKVVCSCTEGYRLAENQKSCEPAVPFPCGRVSVSQTSKLTR
chain 2: VVGGEDAKPGQFPWQVVLNGKVDAFCGGSIVNEKWIVTAAHCVETGVKITVVAGEHNIEETEHTEQNRSVIRIIPHHNYSAAINKYNHDIALLELDEPLVLNSYVTPICIADKEYTNIFLKFGSGYVSGWGRVFHKGYSALVLQYLRVPLVDRATCLESTKFTIYNNMFCAGFHEGGRDSCQGDSGGPHVTEVEGTSFLTGIISWGEECAMKGKYGIYTKVSEYVNWIKNKTKLT
For B2, the “% of WT kcat/KM” value was 124%, the KM (FX activation by FIXa in Xase complex with FVIIIa, PC/PS vesicles, Ca2+) was 0.0954 µM and the kcat/KM was 5.7e+07 M⁻¹ s⁻¹.

B3: FIXa R318Y/R338E/T343R/R403E/E410N (protein)
chain 1: YNSGKLEEFVQGNLERECMEEKCSFEEAREVFENTERTTEFWKQYVDGDQCESNPCLNGGSCKDDINSYECWCPFGFEGKNCELDVTCNIKNGRCEQFCKNSADNKVVCSCTEGYRLAENQKSCEPAVPFPCGRVSVSQTSKLTR
chain 2: VVGGEDAKPGQFPWQVVLNGKVDAFCGGSIVNEKWIVTAAHCVETGVKITVVAGEHNIEETEHTEQKRNVIRIIPHHNYNAAINKYNHDIALLELDEPLVLNSYVTPICIADKEYTNIFLKFGSGYVSGWGRVFHKGYSALVLQYLRVPLVDRATCLESTKFRIYNNMFCAGFHEGGRDSCQGDSGGPHVTEVEGTSFLTGIISWGEECAMKGKYGIYTKVSEYVNWIKNKTKLT
In the case of B3, the “% of WT kcat/KM” value is reported as 907%, the KM (FX activation by FIXa in Xase complex with FVIIIa, PC/PS vesicles, Ca2+) is reported as 0.0247 µM and the kcat/KM is reported as 4.2e+08 M⁻¹ s⁻¹.

B4: FIXa R318Y/R338E/T343R/N346Y/R403E/E410N (protein)
chain 1: YNSGKLEEFVQGNLERECMEEKCSFEEAREVFENTERTTEFWKQYVDGDQCESNPCLNGGSCKDDINSYECWCPFGFEGKNCELDVTCNIKNGRCEQFCKNSADNKVVCSCTEGYRLAENQKSCEPAVPFPCGRVSVSQTSKLTR
chain 2: VVGGEDAKPGQFPWQVVLNGKVDAFCGGSIVNEKWIVTAAHCVETGVKITVVAGEHNIEETEHTEQKRNVIRIIPHHNYNAAINKYNHDIALLELDEPLVLNSYVTPICIADKEYTNIFLKFGSGYVSGWGRVFHKGYSALVLQYLRVPLVDRATCLESTKFRIYYNMFCAGFHEGGRDSCQGDSGGPHVTEVEGTSFLTGIISWGEECAMKGKYGIYTKVSEYVNWIKNKTKLT
B4 was tested, and the “% of WT kcat/KM” value was 663%, the KM (FX activation by FIXa in Xase complex with FVIIIa, PC/PS vesicles, Ca2+) was 0.0158 µM and the kcat/KM was 3.1e+08 M⁻¹ s⁻¹.

B5: FIXa R318Y/R338E/N346Y/R403E/E410N (protein)
chain 1: YNSGKLEEFVQGNLERECMEEKCSFEEAREVFENTERTTEFWKQYVDGDQCESNPCLNGGSCKDDINSYECWCPFGFEGKNCELDVTCNIKNGRCEQFCKNSADNKVVCSCTEGYRLAENQKSCEPAVPFPCGRVSVSQTSKLTR
chain 2: VVGGEDAKPGQFPWQVVLNGKVDAFCGGSIVNEKWIVTAAHCVETGVKITVVAGEHNIEETEHTEQKRNVIRIIPHHNYNAAINKYNHDIALLELDEPLVLNSYVTPICIADKEYTNIFLKFGSGYVSGWGRVFHKGYSALVLQYLRVPLVDRATCLESTKFTIYYNMFCAGFHEGGRDSCQGDSGGPHVTEVEGTSFLTGIISWGEECAMKGKYGIYTKVSEYVNWIKNKTKLT
With B5 the “% of WT kcat/KM” value was 270%, the KM (FX activation by FIXa in Xase complex with FVIIIa, PC/PS vesicles, Ca2+) was 0.0281 µM and the kcat/KM was 1.2e+08 M⁻¹ s⁻¹.

B6: FIXa Y155F/R318Y/R338E/T343R/R403E/E410N (protein)
chain 1: YNSGKLEEFVQGNLERECMEEKCSFEEAREVFENTERTTEFWKQYVDGDQCESNPCLNGGSCKDDINSYECWCPFGFEGKNCELDVTCNIKNGRCEQFCKNSADNKVVCSCTEGYRLAENQKSCEPAVPFPCGRVSVSQTSKLTR
chain 2: VVGGEDAKPGQFPWQVVLNGKVDAFCGGSIVNEKWIVTAAHCVETGVKITVVAGEHNIEETEHTEQKRNVIRIIPHHNYNAAINKYNHDIALLELDEPLVLNSYVTPICIADKEYTNIFLKFGSGYVSGWGRVFHKGYSALVLQYLRVPLVDRATCLESTKFRIYNNMFCAGFHEGGRDSCQGDSGGPHVTEVEGTSFLTGIISWGEECAMKGKYGIYTKVSEYVNWIKNKTKLT
B6 was tested, and the “% of WT kcat/KM” value was 640%, the KM (FX activation by FIXa in Xase complex with FVIIIa, PC/PS vesicles, Ca2+) was 0.0272 µM and the kcat/KM was 3e+08 M⁻¹ s⁻¹.

B7: FIXa R318Y/R338E/Y345A/R403E/E410N (protein)
chain 1: YNSGKLEEFVQGNLERECMEEKCSFEEAREVFENTERTTEFWKQYVDGDQCESNPCLNGGSCKDDINSYECWCPFGFEGKNCELDVTCNIKNGRCEQFCKNSADNKVVCSCTEGYRLAENQKSCEPAVPFPCGRVSVSQTSKLTR
chain 2: VVGGEDAKPGQFPWQVVLNGKVDAFCGGSIVNEKWIVTAAHCVETGVKITVVAGEHNIEETEHTEQKRNVIRIIPHHNYNAAINKYNHDIALLELDEPLVLNSYVTPICIADKEYTNIFLKFGSGYVSGWGRVFHKGYSALVLQYLRVPLVDRATCLESTKFTIANNMFCAGFHEGGRDSCQGDSGGPHVTEVEGTSFLTGIISWGEECAMKGKYGIYTKVSEYVNWIKNKTKLT
In the case of B7, the “% of WT kcat/KM” value is reported as 180%, the KM (FX activation by FIXa in Xase complex with FVIIIa, PC/PS vesicles, Ca2+) is reported as 0.0188 µM and the kcat/KM is reported as 8.3e+07 M⁻¹ s⁻¹.

B8: FIXa R318Y/R338E/T343R/N346D/R403E/E410N (protein)
chain 1: YNSGKLEEFVQGNLERECMEEKCSFEEAREVFENTERTTEFWKQYVDGDQCESNPCLNGGSCKDDINSYECWCPFGFEGKNCELDVTCNIKNGRCEQFCKNSADNKVVCSCTEGYRLAENQKSCEPAVPFPCGRVSVSQTSKLTR
chain 2: VVGGEDAKPGQFPWQVVLNGKVDAFCGGSIVNEKWIVTAAHCVETGVKITVVAGEHNIEETEHTEQKRNVIRIIPHHNYNAAINKYNHDIALLELDEPLVLNSYVTPICIADKEYTNIFLKFGSGYVSGWGRVFHKGYSALVLQYLRVPLVDRATCLESTKFRIYDNMFCAGFHEGGRDSCQGDSGGPHVTEVEGTSFLTGIISWGEECAMKGKYGIYTKVSEYVNWIKNKTKLT
In the case of B8, the “% of WT kcat/KM” value is reported as 177%, the KM (FX activation by FIXa in Xase complex with FVIIIa, PC/PS vesicles, Ca2+) is reported as 0.067 µM and the kcat/KM is reported as 8.2e+07 M⁻¹ s⁻¹.

B9: FIXa D104N/K106S/R318Y/R338E/T343R/R403E/E410N (protein)
chain 1: YNSGKLEEFVQGNLERECMEEKCSFEEAREVFENTERTTEFWKQYVDGDQCESNPCLNGGSCKDDINSYECWCPFGFEGKNCELDVTCNIKNGRCEQFCKNSANNSVVCSCTEGYRLAENQKSCEPAVPFPCGRVSVSQTSKLTR
chain 2: VVGGEDAKPGQFPWQVVLNGKVDAFCGGSIVNEKWIVTAAHCVETGVKITVVAGEHNIEETEHTEQKRNVIRIIPHHNYNAAINKYNHDIALLELDEPLVLNSYVTPICIADKEYTNIFLKFGSGYVSGWGRVFHKGYSALVLQYLRVPLVDRATCLESTKFRIYNNMFCAGFHEGGRDSCQGDSGGPHVTEVEGTSFLTGIISWGEECAMKGKYGIYTKVSEYVNWIKNKTKLT
B9 was tested, and the “% of WT kcat/KM” value was 487%, the KM (FX activation by FIXa in Xase complex with FVIIIa, PC/PS vesicles, Ca2+) was 0.0266 µM and the kcat/KM was 2.2e+08 M⁻¹ s⁻¹.
